{"source": "patent US20240158499A1", "about": "(Janssen / Centocor, published 2024)", "key": {"[1]": {"target": "T1, extracellular domain (ECD) of human CD79B isoform 1, CD9W7 (human)", "T1 construct": "It also carries C-terminal tag residues ending in a 6xHis tag; also called CD79b long isoform; hCD79B-long", "T1 chain": "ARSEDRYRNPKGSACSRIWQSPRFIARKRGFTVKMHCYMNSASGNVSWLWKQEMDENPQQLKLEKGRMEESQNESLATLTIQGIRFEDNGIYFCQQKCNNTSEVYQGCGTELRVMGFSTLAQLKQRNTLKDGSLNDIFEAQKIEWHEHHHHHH", "experiment": "SPR; hCD79B-long"}, "[2]": {"target": "T2, extracellular domain (ECD) of human CD79B isoform 2, CD9W8 (human)", "T2 construct": "It also carries C-terminal tag residues ending in a 6xHis tag; also called CD79b short isoform; hCD79B-short", "T2 chain": "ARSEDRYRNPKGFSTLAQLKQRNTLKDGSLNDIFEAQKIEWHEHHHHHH", "experiment": "SPR; hCD79B-short"}}}
{"binder": "CD9B1256 (antibody, V domains shown, also called VR000056263) VH: EVQLVESGPGLVEPSETLSLTCTVSGGSISSYYWSWIRQPAGKGLEWIGRIYSSGSTNYNPSLKSRVTMSVDTSENQFSLNLNSVTAADTAKYYCARGEYSGDLGGYGLDVWGQGTMVTVSS VL: EIVMTQSPLSLSVTPGEPASISCRSSQSLLDSDDGNTYLDWYLQKPGQSPQLLIQTLSYRASGVPDRFSGRGSGTDFTLKISRVEAEDVGIYYCMQRMEFPLTFGGGTKVDIKR", "values": [{"measurement": "Kd", "setting": "[1]", "value": 0.78, "unit": "nM"}, {"measurement": "Kd", "setting": "[2]", "value": 2.21, "unit": "nM"}]}
